# The nanobody polyreactivity screen of Harvey et al. (2022)
# Test: yeast display, Sf9 membrane polyspecificity reagent, FACS + sequencing; frameworks hold sequencing errors
# Summary of the method: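 Galactose-induced (36–48 hours) yeast carrying a synthetic nanobody display library were exposed to 10% biotinylated, detergent-solubilized Sf9 membrane reagent at 4 °C for 1 hour. FACS followed streptavidin microbead enrichment, using low and high (top ~1%) gates for expression (anti-HA) and reagent binding (streptavidin). Colony PCR, MiSeq 2 × 250 sequencing and CDR-length filtering followed. Labels for polyreactivity reflect the gate of origin.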
row,Sequence,polyreactivity (PSR sort gate)
1,QVQLVESGGGLVQAGGSLRLSCAASGSPFPYVMVWYRQAPGKERELVAAISQRTGSTYYADSVKGRFTISRDNAKNTVYLQMNSLKPEDTAVYYCAKPGYLRPSRYDYWGQGTQVTVSS,high polyreactivity
2,QVQLVESGGGLVQAGGSLRLSCAASGSPFRGYAMGWYRLAPGKEREFVAAISRRGGTTYYADSVKARFTISRDNAKNTGYLQMNSLKPEDTAVYYCNKVYYQHYLPVDYWGQGTQVTVSS,high polyreactivity
3,QVQLVESGGGLVQAGGSLRLSCAASGSSFFSNAMGWYRQAPGKERELVASIRSGTRTNYADSVKGRFTISRDNAKNTVYLLMNILKPADTAVYYCAKKWGLDKHRIGHRRLDYWGQGTQVTVSS,low polyreactivity
4,QVQLVESGGGLVQAGGSLRLSCAASGSSFHTYAMGWYRQAPGKERELVAAINRRTGGTYYADSVKGRFTISRDNAKTTVYLQMNSLKPEDTAVYYCATDWFSYRGGIFDSWGQGTQVTVSS,low polyreactivity
5,QVQLVESGGGLVQAGGSLRLSCAASGSSFNGNAMGWYRQAPGKERELVAAISRKGGSTYYADSVKGRFTISRDNAKNTVYLQMNSLKPEDTAVYYCATDLTVYYSYYWMYWGQGTQVTVSS,low polyreactivity
6,QVQLVESGGGLVQAGGSLRLSCAASGSSFPVNGIGWYRQAPGKERELVAVITDSDGSTYYADSVKGRFTISRDNAKNTVYLQMNSLKPEDTAVYYCAADDYAYSYGYWLTYDYWGQGTQVTVSS,low polyreactivity
7,QVQLVESGGGLVQAGGSLRLSCAASGSSFRVYAMGWSRQAPGKERELVASISRRGGSTYYADSVKGRFTISRDNAKTTVYIQMNSLKPEDTAVYYCNVPYYSFRDVSSYYSGQGTQVTVSS,high polyreactivity
8,QVQLVESGGGLVQAGGSLRLSCAASGSSFSRYDMGWYRQAPGKERELVATITRPGRTYYADSVKGRFTISRDNATKTVYLQMNSLKPEDTAVYYCAKDAGKTYYVDGSLEYDSWGQGTQVTVSS,low polyreactivity
9,QVQLVESGGGLVQAGGSLRLSCAASGSSFTYYTMGWYRQAPAKERELVAAISWSGGRTYYADSVTGRFTISRDNAKNTVYLQMNSLKPEDTAVYYCAAGPAPGHDSWGQGTQVTESS,high polyreactivity
10,QVQLVESGGGLVQAGGSLRLSCAASGSSFVYNVMGWYRQAPGKERELVAAIRWRGGSTYADSVKGRFTISRDNAKNTVYLQMNSLKPEDTAVYYCAAGIPRYWYAGHYDYWGQGSQVTVSS,low polyreactivity
11,QVQLVESGGGLVQAGGSLRLSCAASGSSIYSYAMGWYRQEPGKERELVAAITTSGGSTYYADSVKGRFTISRDNAKNTDYLQMNSLKPEDTAVYYCNAYFIYEGGWYYKAQYDYWGQGTQVTVSS,low polyreactivity
12,QVQLVESGGGLVQAGGSLRLSCAASGSSLWENAMGWYRQAPGKERQLVATISVSGGGTYYADSVKGRFTISRDNAKNTVYLQMTSLKPEDTAVYYCTARYGNESQGWADYWGQGTQVTVSS,low polyreactivity
13,QVQLVESGGGLVQAGGSLRLSCAASGSSLYYNAMGWYRQAPGKERELVAAISWSGGSTYYADSVKGRFTISRDNAKNTVYLQMNSLKPEDTAVSYCAADQSTVLDVGSWGQGTQVTVSS,low polyreactivity
14,QVQLVESGGGLVQAGGSLRLSCAASGSSVSYYAMGWYRQAPGKERELVAAISDNGDSTYYADSVKGRFTISRDNAKNTVYLQMNSLKPEDTAVYYCDKRYRSYGKSSKRRYYYWGQGTQVTVSS,low polyreactivity
15,QVQLVESGGGLVQAGGSLRLSCAASGSTCDTNVMGWYRQAPGKERELVAAITTSSSRTYYADSVKGRFTISRDNAKNTGYLQMNSLKPEDTAVYDCAARIHGSWSFDYWGQGTQVTVSS,low polyreactivity
16,QVQLVESGGGLVQAGGSLRLSCAASGSTCERYAMGWSRQAPGKERELVAVISYRGTSTYYADSVKGRFTISRDNAKNTVYLQMNSLKAEDTAVYDCAAEPYRTVTAYRYSLYWYNYWGQGTQVTVSS,high polyreactivity
17,QVQLVESGGGLVQAGGSLRLSCAASGSTCFHYSMGWYRQAPGKERELVAAITGTGRTTYADSVKGRFTISRDNAKTTVYLQMNSLKPEDTAVYYCAADVNYYQHRLYYWGQGTQVTVSS,low polyreactivity
18,QVQLVESGGGLVQAGGSLRLSCAASGSTCTGYTMGWYRQAPGNERELVAAITYRGGSTYYADSVKGRFTISRDNAKNTVYLQKNSLKPEETAVYYCAAVPEYYEYSPYDYWGQGTQVTVSS,low polyreactivity
19,QVQLVESGGGLVQAGGSLRLSCAASGSTDRYYVMGWYRQAPGKERDLVAGISYRGGTTYYADSVKGRFTISRDNAKNTVYLQMNRLKPEDTAVYYCNAETAAAQASYDRLYVLLDYWGQGTQVTVSS,low polyreactivity
20,QVQLVESGGGLVQAGGSLRLSCAASGSTDSNAMGWYRQAPGKERELVAAISGTGSRTYYADSVKGRFTISRDNAKNTVYLQMNSLKPEDTAVYYCAAYSGYYRPRYNYWGQGTQVTVSS,high polyreactivity

row,Sequence,polyreactivity (PSR sort gate)
1,QVQLVESGGGLVQAGGSLRLSCAASGSTFAANAMGWYRQAPGKERELVAAITSSGGSTFYADSVKGRFTISRDNAKNTVYLQMNSLKPEDTAVYYCNKDIERYVRIYDSWGQGTQVTVSS,low polyreactivity
2,QVQLVESGGGLVQAGGSLRLSCAASGSTFAAYAMGWYRQAPGKERELVAAISATGGSTYYADSVKGRFTISRDNAKNTVYLQMNRLKPEDTAVYYCAADYPSWYGYRYYYWGQGTQVTVSS,high polyreactivity
3,QVQLVESGGGLVQAGGSLRLSCAASGSTFAEYAMGWYREAPGKERELVADITWSGGSTYYADSVKGRFTISRDNAKNTVYLQMNSLKPDDTAVYYCYFWPVFYDFYLYGYWGQGTQVTVSS,low polyreactivity
4,QVQLVESGGGLVQAGGSLRLSCAASGSTFAFNAMGWYRQAPGKERELVAAIYSDGSTDYADSVKGRFSISRDNAKNTVYLQMNSLKPEDPAVYYCADDWGWRYVLPVGWFRYGYWGQGTQVTVSS,low polyreactivity
5,QVQLVESGGGLVQAGGSLRLSCAASGSTFAFNAMGWYRQAPGKERELVASISGSGSSTYYADSVKGRFTISRDNAKNTVYLQMNSMKPEVTAVYYCDARVGARVSPPRRHGRFNYWGQGTQVTVSS,high polyreactivity
6,QVQLVESGGGLVQAGGSLRLSCAASGSTFAGNAMGWYRQAPGKERELVAAIDSSTGSTYYADSVKGRFTISRDNAKNTVYLQMNSLKPEDTPVYYCSREYYEGYEYWGLGTQVTVSS,low polyreactivity
7,QVQLVESGGGLVQAGGSLRLSCAASGSTFAGNGMGWYRQAPGKERELVAGIDVTGGSTYYADSVKGRFTSSRDNAKNTVYLQMNSLKPEDTAVYYCNARYVYHSSFAGFDYWGQGTQVTVSS,low polyreactivity
8,QVQLVESGGGLVQAGGSLRLSCAASGSTFAINAMGWYRQAPGKERELVAAITYSGGGTYYADSVKGRFTISRENAKNTVYLQMNSLKPEDTAVYYCYAYGRSWVFNYIGVFLYDYWGQGTQVTVSS,low polyreactivity
9,QVQLVESGGGLVQAGGSLRLSCAASGSTFAINVMGWYRQAPGKERELVAAISSVGGTNYADSVKGRFTISRDNAKNTVYLQMNSLKPEDTAVYYCATVYSSWTVRYDYWGQGTQVTVSS,low polyreactivity
10,QVQLVESGGGLVQAGGSLRLSCAASGSTFAIYAMGWYRQAHGKERELVAAIRQRAGSTYYADSVKGRFTISRDNAKNTVYLQMNSLKPEDTAVYYCATATRPISRGYWGQGTQVTVSS,low polyreactivity
11,QVQLVESGGGLVQAGGSLRLSCAASGSTFAKYAMGWYRQAPGKERELVASIRLSGGSTYYADSVKGRFTISRDNAKNTVYLQMNSLKPEDTAVYYCNKPFPYYPDGPNGYDYWGQGTQVTVSS,low polyreactivity
12,QVQLVESGGGLVQAGGSLRLSCAASGSTFAKYAMGWYRQAPGKERELVAVISWGGGSTYYADSVKGRFTISRDNAKNTVYLQMNSLKPEDTAVYYCAAVYDEYQTTHEYDYWGQGTQVTVSS,low polyreactivity
13,QVQLVESGGGLVQAGGSLRLSCAASGSTFAKYAMGWYRQAPGKESELVASIRLSGGSTYYADSVKGRFTISRDNAKNTVYVQRNSLKPEDTAVYYCNKQFATFYYGFDYSYWGQGTQVTVSS,low polyreactivity
14,QVQLVESGGGLVQAGGSLRLSCAASGSTFALNAMGWYRQAPGKERELVAAIDDSGITYYADSVKGRFTISRDNAKNTVYLQMNSLKPDDTAVYYCAKKEWKSRTHAKGDQYPDDYWGQGTQVTVSS,low polyreactivity
15,QVQLVESGGGLVQAGGSLRLSCAASGSTFALYVMGRYRQAPGKERELVAAINSVGSKYYADSVKGRFTISRDNAKNTVYLQMHSLKPEDTSVYYCAAVSTYRPGWYYRYNYWGHGTQVTVSS,high polyreactivity
16,QVQLVESGGGLVQAGGSLRLSCAASGSTFANNAMGWYRQAPGKERELVASITTDGSTNYADSVKGRFTIARDNAKNTVYLQMNSLKPEDTAVYYGAADYHTPSSFAPIELYDYWGQGTQVTVSS,low polyreactivity
17,QVQLVESGGGLVQAGGSLRLSCAASGSTFAPYAMGWYRQAPGKERELVASIRSTGSTNYADSVKGRFTISRDNAKNTVYLQMNSLKPEDTAVYYCAARYRRYQYRVKVDYYYWGQGTQVTVSA,high polyreactivity
18,QVQLVESGGGLVQAGGSLRLSCAASGSTFARYTMGWYRQAPGKERELVAAITSNGVSTYYADSVKGRFTISRDNAKNTVYLQMNSLKPEDTAVYYCAASSRSRYGRNDYWGQGTQVTVSS,low polyreactivity
19,QVQLVESGGGLVQAGGSLRLSCAASGSTFARYTMGWYRQAPGKERELVATITNRGGSTYYADSVKGRFTISRDNAKNTVYLQMNSLKPEVTAVYYCNKRYYWGGYDYWGQGTQVTVSS,high polyreactivity
20,QVQLVESGGGLVQAGGSLRLSCAASGSTFATYAMGWYRQAPGKERELVAAITSGGSTYYADSVKGRFTISRDNAKNTVYLQMNSLKPEDTAVYYCAARSYGWRRATYYKREEYWGQGTQVTVSS,high polyreactivity
